A value given as a limit tells only on which side of the number the result lay.

The text below walks through data of US20030198640A1 (Human Genome Sciences, published 2003).

To fix the notation:
B1: TNF-gamma-β (form used not stated) (ligand)
chain: LKGQEFAPSHQQVYAPLRADGDKPRAHLTVVRQTPTQHFKNQFPALHWEHELGLAFTKNRMNYTNKFLLIPESGDYFIYSQVTFRGMTSECSEIRQAGRPNKPDSITVVITKVTDSYPEPTQLLMGTKSVCEVGSNWFQPIYLGAMFSLQEGDKLMVNVSDISLVDYTKEDKTFFGAFLL
B2: OX40 (Fc-fusion form of the extracellular domain) (Fc fusion, UniProt P43489 29-214, looked up)
chain: LHCVGDTYPSNDRCCHECRPGNGMVSRCSRSQNTVCRPCGPGFYNDVVSSKPCKPCTWCNLRSGSERKQLCTATQDTVCRCRAGTQPLDSYKPGVDCAPCPPGHFSPGDNQACKPWTNCTLAGKHTLQPASNSSDAICEDRDPPATQPQETQGPPARPITVQPTEAWPRTSQGPSTRPVEVPGGRA
notes: extracellular domain; not shown: Fc part
B3: RANK (Fc-fusion form of the extracellular domain) (Fc fusion, UniProt Q9Y6Q6 30-212, looked up)
chain: IAPPCTSEKHYEHLGRCCNKCEPGKYMSSKCTTTSDSVCLPCGPDEYLDSWNEEDKCLLHKVCDTGKALVAVVAGNSTTPRRCACTAGYHWSQDCECCRRNTECAPGLGAQHPLQLNKDTVCKPCLAGYFSDAFSSTDKCRPWTNCTFLGKRVEHHGTEKSDAVCSSSLPARKPPNEPHVYLP
notes: as for B2
B4: DcR2 (Fc-fusion form of the extracellular domain) (Fc fusion, UniProt Q9UBN6 56-211, looked up)
chain: ATIPRQDEVPQQTVAPQQQRRSLKEEECPAGSHRSEYTGACNPCTEGVDYTIASNNLPSCLLCTVCKSGQTNKSSCTTTRDTVCQCEKGSFQDKNSPEMCRTCRTGCPRGMVKVSNCTPRSDIKCKNESAASSTGKTPAAEETVTTILGMLASPYH
notes: as for B2
B5: OPG (Fc-fusion form) (Fc fusion, UniProt O00300 22-194, looked up)
chain: ETFPPKYLHYDEETSHQLLCDKCPPGTYLKQHCTAKWKTVCAPCPDHYYTDSWHTSDECLYCSPVCKELQYVKQECNRTHNRVCECKEGRYLEIEFCLKHRSCPPGFGVVQAGTPERNTVCKRCPDGFFSNETSSKAPCRKHTNCSVFGLLLTQKGNATHDNICSGNSESTQK
notes: as for B2
B6: AITR (Fc-fusion form of the extracellular domain) (Fc fusion, UniProt Q9Y5U5 26-162, looked up)
chain: QRPTGGPGCGPGRLLLGTGTDARCCRVHTTRCCRDYPGEECCSEWDCMCVQPEFHCGDPCCTTCRHHPCPPGQGVQSQGKFSFGFQCIDCASGTFSGGHEGHCKPWTDCTQFGFLTVFPGNKTHNAVCVPGSPPAEP
notes: as for B2
B7: DcR1 (Fc-fusion form of the extracellular domain) (Fc fusion, UniProt O14798 26-221, looked up)
chain: ATTARQEEVPQQTVAPQQQRHSFKGEECPAGSHRSEHTGACNPCTEGVDYTNASNNEPSCFPCTVCKSDQKHKSSCTMTRDTVCQCKEGTFRNENSPEMCRKCSRCPSGEVQVSNCTSWDDIQCVEEFGANATVETPAAEETMNTSPGTPAPAAEETMNTSPGTPAPAAEETMTTSPGTPAPAAEETMTTSPGTPA
notes: as for B2
B8: TNFR1-Fc (Fc fusion, UniProt P19438 30-211, looked up)
chain: LVPHLGDREKRDSVCPQGKYIHPQNNSICCTKCHKGTYLYNDCPGPGQDTDCRECESGSFTASENHLRHCLSCSKCRKEMGQVEISSCTVDRDTVCGCRKNQYRHYWSENLFQCFNCSLCLNGTVHLSCQEKQNTVCTCHAGFFLRENECVSCSNCKKSLECTKLCLPQIENVKGTEDSGTT
notes: as for B2

For one experiment, the target named is T1, DR3, full length, on cells (transfected 293T cells; naturally expressed on TF-1 cells and T cells) (human, UniProt Q93038 25-417).
T1 sequence: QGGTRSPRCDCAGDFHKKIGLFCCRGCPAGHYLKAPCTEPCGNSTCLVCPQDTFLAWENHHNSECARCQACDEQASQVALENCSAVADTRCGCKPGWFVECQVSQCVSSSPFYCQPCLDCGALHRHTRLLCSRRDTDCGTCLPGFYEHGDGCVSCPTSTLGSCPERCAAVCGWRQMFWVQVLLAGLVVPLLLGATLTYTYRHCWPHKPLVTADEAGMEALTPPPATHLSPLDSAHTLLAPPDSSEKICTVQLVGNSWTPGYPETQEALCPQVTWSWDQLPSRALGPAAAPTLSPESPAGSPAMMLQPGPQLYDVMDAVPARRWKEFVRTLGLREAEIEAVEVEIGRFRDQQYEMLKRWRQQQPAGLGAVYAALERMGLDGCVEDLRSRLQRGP
The experiment in a line: cell-based or functional assay.
For B1, the “IFNγ production by anti-CD2 stimulated lamina propria mononuclear cells (ELISA)” value is at least 2 fold.

A further experiment concerns the target T2, full length TNF-gamma-beta expressed on the cell surface (HEK293F stable transfectants); cells transfected … (human, UniProt O95150 1-251).
T2 construct: also called TNF-gamma-beta expressing cells
T2 sequence: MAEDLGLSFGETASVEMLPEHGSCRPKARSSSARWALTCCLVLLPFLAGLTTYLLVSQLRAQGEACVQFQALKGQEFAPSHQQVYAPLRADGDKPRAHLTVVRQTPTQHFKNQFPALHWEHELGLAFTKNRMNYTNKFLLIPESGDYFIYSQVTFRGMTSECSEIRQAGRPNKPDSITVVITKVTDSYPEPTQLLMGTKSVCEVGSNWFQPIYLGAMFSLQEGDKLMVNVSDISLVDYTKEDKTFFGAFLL
The experiment in a line: flow cytometry on HEK293F cells expressing full length TNF-gamma-beta. The procedure:
These cells were used to screen the Fc-fusion form of the extracellular domain of TNFR family members, including TNFR1, Fas, HveA, DR3, DR4, DR5, DR6, DcR1, DcR2, TR6, OPG, RANK, AITR, TAC1, CD40, and OX40. […] TR6 has been previously described as a decoy receptor (Pitti et al., Nature 396:699-703 (1998); Yu et al., J. Biol. Chem. 274:13733-6 (1999)) capable of competing with Fas and HveA for binding of FasL and LIGHT, respectively.
One million cells, in 0.1 ml of FACS buffer (PBS, 0.1% BSA, 0.1% NaN₃), were incubated with 0.1-1 microgram of protein or antibody at RT for 15 min. The cells were washed with 3 ml of FACS buffer, reacted with biotinylated primary antibody, and stained with PE-conjugated secondary antibody at RT for 15 min. Cells were then washed again, resuspended in 0.5 microgram/ml of propidium iodide, and live cells were gated and analyzed on a FACScan using the CellQuest software (BD Biosciences).
(In general: In flow cytometry, cells or beads pass a laser one at a time.)
In the case of B2, the binding result is reported as “no binding”.
The same measure, in the same setting: the value for B3 was “no binding”; that for B4 was “no binding”; that for B5 was “no binding”.
Still for that read-out and setting: under B6 stands “no binding”; under B7, “no binding”; under B8, “no binding”.
